Assay in all cases: SPR; biotinylated short peptides immobilised at ~25 response units on streptavidin-coated CM5 chips, BIAcore 3000; SH2 domains injected at 10 μl/min at 37°C; equilibrium binding, 1:1 Langmuir
Holding throughout (conditions): both partners purified

The target of experiment [1] is T1, GADS SH2 domain, His-tagged (UniProt O75791 58-149).
T1 construct: GRB2-related adaptor downstream of Shc (GADS), SH2 domain; In the popinF vector, provided by the Oxford Protein Production Facility
T1 sequence (looked up): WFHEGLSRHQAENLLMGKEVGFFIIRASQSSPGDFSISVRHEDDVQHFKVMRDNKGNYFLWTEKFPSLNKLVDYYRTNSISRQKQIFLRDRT

Experiment [2] addresses T2, GRB2 SH2 domain, His-tagged (UniProt P62993 60-152).
T2 construct: In the popinF vector

The target of experiment [3] is T3, TSAd SH2 domain, His-tagged (UniProt Q9NP31 95-186).
T3 construct: T cell-specific adaptor protein (TSAd, SH2D2A), SH2 domain; In the popinF vector

Drawing on publication PMC5440646, “T Cell Costimulation by CD6 Is Dependent on Bivalent Binding of a GADS/SLP-76 Complex” (Molecular and Cellular Biology, 2017), this text covers Kd for two molecules.

Where no end group is shown, it is not given here. [ ]: non-standard residue; d: D form. The star is where a group is joined. Biotin = O=C1N[C@H]2[C@H](CS[C@H]2CCCCC(=O)*)N1; pY = N[C@@H](Cc1ccc(OP(=O)(O)O)cc1)C(=O)O

T3 sequence (Q9NP31 95-186): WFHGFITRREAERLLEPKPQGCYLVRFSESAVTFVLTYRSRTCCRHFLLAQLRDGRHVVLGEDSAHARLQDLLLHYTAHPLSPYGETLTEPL
T2 sequence (P62993 60-152): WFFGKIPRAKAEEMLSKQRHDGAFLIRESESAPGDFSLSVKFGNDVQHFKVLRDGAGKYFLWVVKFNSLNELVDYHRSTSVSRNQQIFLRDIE

B1: CD28 pYMNM peptide (biotin-LLHSDpYMNMTP) (peptide)
peptide: Biotin-LLHSD[pY]MNMTP
notes: CD28-derived peptide containing the YXN motif; also called phosphorylated CD28-derived peptide; source: synthetic peptide (Peptide Protein Research Ltd.)
As for B1, the Kd is 2000 to 3000 nM in experiment [1], 3000 nM in experiment [2] and 74000 nM in experiment [3].

B2: CD6 pY629 peptide (biotin-SSGEWpYQNFQP) (peptide)
peptide: Biotin-SSGEW[pY]QNFQP
notes: CD6, human, cytoplasmic region around Y629; also called phosphorylated CD6 Y629 peptide; source: synthetic peptide (Peptide Protein Research Ltd.)
With B2, the Kd in experiment [1] was 1000 to 3000 nM; in experiment [2] it was 2000 to 4000 nM; in experiment [3], 26000 to 58000 nM.
